# Measurements from patent US12491255 (ARO BIOTHERAPEUTICS, dated 2025).
# T1: human EpCAM on COLO-205 cells (human, UniProt P16422 24-314)
# T1 sequence (looked up): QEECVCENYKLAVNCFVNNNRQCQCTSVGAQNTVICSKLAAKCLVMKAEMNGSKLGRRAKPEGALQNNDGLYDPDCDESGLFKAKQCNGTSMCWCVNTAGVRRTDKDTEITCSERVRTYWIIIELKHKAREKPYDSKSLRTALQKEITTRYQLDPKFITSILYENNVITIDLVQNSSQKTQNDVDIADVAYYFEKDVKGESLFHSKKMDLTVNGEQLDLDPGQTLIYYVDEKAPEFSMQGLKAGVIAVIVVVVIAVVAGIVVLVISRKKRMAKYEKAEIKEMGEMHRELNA
# B1: EpCAM FN3 domain-MMAF conjugate of clone 639 (designed binder)
# chain: MLPAPKNLVVSRVTEDSARLSWTAPDAAFDSFSISYRERSAWGEAIALVVPGSERSYDLTGLKPGIEYIVGIIGVKGGLRSNPLRADFTT
# modifications: VC-MMAF (maleimide) on a cysteine; position of the cysteine not stated
# B2: EpCAM FN3 domain-MMAF conjugate of clone 680 (designed binder)
# chain: MLPAPKNLVVSRVTEDSARLSWTAPYAAFDSFAISYRERSREGEVIALTVPGSERSYDLTGLKPGTEYIVGILGVKGGRRSKPLRAQFTT
# modifications: VC-MMAF (maleimide) on a cysteine; position of the cysteine not stated
# B3: EpCAM binding FN3 domain clone 639 (designed binder)
# chain: B1 chain
# notes: not shown: No entry is named H9
# B4: EpCAM binding FN3 domain clone 1874 (designed binder)
# chain: MLPAPKNLVVSRVTEDSARLSWTAPDAAFDSFKIGYWEWRKYGEAIELNVPGSERSYDLTGLKPGTEYRVLIYGVKGGAGSHPLRALFTT
# notes: as for B3
# B5: EpCAM binding FN3 domain clone 680 (designed binder)
# chain: B2 chain
# notes: as for B3
# B6: EpCAM binding FN3 domain clone 1420 (designed binder)
# chain: MLPAPKNLVVSRVTEDSARLSWEGYRNNAHFDSFLIQYQESEKVGEAIVLTVPGSERSYDLTGLKPGTEYTVSIYGVVAAVPRNYYSNPLSAIFTT
# notes: as for B3
# B7: EpCAM binding FN3 domain clone 1807 (designed binder)
# chain: MLPAPKNLVVSRVTEDSARLSWTAPDAAFDSFYIRYYEGSGYGEAIVLTVPGSERSYDLTGLKPGTEYYVYIGGVKGGSPSSPLSAIFTTG
# notes: as for B3
# Target: T1, human EpCAM on COLO-205 cells
# Assay: cell-based or functional assay
row,Binder,"IC50 of EpCAM FN3 domain-MMAF conjugate molecules in COLO-205 Cells (cell viability, Cell TiterGlo, 72 hours) [nM]"
1,B1,2.2
2,B2,0.11

# Target: T1, human EpCAM on COLO-205 cells
# Assay: flow cytometry, ratio of the signal on COLO-205 (EpCAM+) to that on A375 (EpCAM-) cells
# Protocol: (§1) Three rounds of CIS display panning on recombinant huEpCAM protein (R&D Systems) were performed using TCL23 as described previously. The output from Round 3 was amplified and cloned into phagemid vector containing truncated pIII. An additional 4 rounds of selection on recombinant protein human EpCAM and Colo 205 (positive cells) with negative selection on A375 (negative cells) was performed. After 4 rounds of selection on recombinant protein and Colo 205 cells, 96 individual clones were assayed for binding to Colo 205 cells by phage ELISA; EpCAM negative cells (A375) were used as a negative control. Phage binding was assessed using a labeled anti-M13 antibody. Clones that were positive by phage ELISA were subcloned into a bispecific Centyrin expression plasmid where the carboxy terminal domain was an albumin binding Centyrin (H9). Soluble Centyrins were expressed, recovered from periplasmic extracts and assessed for binding to Colo205 (EpCAM+) and A375 (EpCAM-) (Table 4).
row,Binder,COLO-205/A375
1,B3,11
2,B4,12.1
3,B5,11.9
4,B6,25.8
5,B7,4.4

# Target: T1, human EpCAM on COLO-205 cells
# Assay: flow cytometry, periplasmic extract of soluble Centyrin on COLO-205 (EpCAM+) cells
# Protocol: as §1
row,Binder,Mean BL-1 P.E. COLO-205
1,B3,10100
2,B4,27100
3,B5,10400
4,B6,22600
5,B7,12900
